Measured values taken from publication PMC1334386 (PLoS Biology, 2006).
“Also recorded” adds a separate entry of the source.

Assays:
[1] = biological target: T1, HAUSP TRAF-like domain (residues 53–206) (Homo sapiens, UniProt Q93009); experiment: gel filtration binding assay of MDM2 fragments with HAUSP TRAF-like domain; details: Superdex-200, HAUSP residues 53–206, 25 mM Tris pH 8.0, 100 mM NaCl, 2 mM DTT, 4 °C
T1 construct: GST (N); made in house; host or cells: Escherichia coli BL21(DE3), vector pGEX-2T
T1 sequence (Q93009 53-206): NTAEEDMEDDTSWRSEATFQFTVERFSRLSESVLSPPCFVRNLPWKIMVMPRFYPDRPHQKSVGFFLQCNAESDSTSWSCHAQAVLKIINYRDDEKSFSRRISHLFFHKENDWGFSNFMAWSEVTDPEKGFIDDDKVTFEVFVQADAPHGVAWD
Description: (§1) Size-exclusion chromatography (gel filtration), using a Superdex-200 column (10/30, Amersham Pharmacia Biotech, Piscataway, New Jersey, United States), was employed to carry out all the in vitro binding assays. Proteins subjected to binding tests were incubated at 4 °C for at least 45 min to allow equilibrium to be reached. The flow rate was 0.5 ml/min, and the buffer contained 25 mM Tris (pH 8.0), 100 mM NaCl, and 2 mM DTT. All fractions were collected at 0.5 ml each. Aliquots of relevant fractions were mixed with SDS sample buffer and subjected to SDS-polyacrylamide gel electrophoresis. The proteins were visualized by Coomassie Blue staining. The column was calibrated with molecular-mass standards.

[2] = system: HAUSP TRAF-like domain (residues 1–206); experiment: gel filtration binding assay with HAUSP (residues 1–206); details: Superdex-200, 25 mM Tris pH 8.0, 100 mM NaCl, 2 mM DTT, 4 °C, SDS-PAGE/Coomassie, protein alone, no competitor
Description: as §1

[3] = system: HAUSP TRAF-like domain (residues 1–206); experiment: in vitro competition assay using gel filtration chromatography, MDM2 versus p53; assay type: binding; details: 10-fold molar equivalence of p53 (351–382) preincubated with HAUSP 5 min at 4 °C, then one molar equivalence of MDM2 (208–289) 45 min at 4 °C, SDS-PAGE/Coomassie

complex formation with HAUSP TRAF-like domain [1] | complex formation with HAUSP (residues 1–206) [2] | Molecule | complex formation with HAUSP in competition [3]
formed a stable complex |  | MDM2 fragment residues 223–289: MDM2 fragment encompassing residues 223–289 (protein) DLDAGVSEHSGDWLDQDSVSDQFSVEFEVESLDSEDYSLSEEGQELSDEDDEVYQVTVYQAGESDTD | 
 | interacts | MDM2 (residues 208–289): MDM2 fragment, residues 208–289 (protein) ERSSSSESTGTPSNPDLDAGVSEHSGDWLDQDSVSDQFSVEFEVESLDSEDYSLSEEGQELSDEDDEVYQVTVYQAGESDTD | formed a stable complex only with MDM2; also recorded: formed a stable complex with HAUSP
formed a stable complex |  | MDM2 fragment residues 170–232: MDM2 fragment encompassing residues 170–232 (protein) ENSDELSGERQRKRHKSDSISLSFDESLALCVIREICCERSSSSESTGTPSNPDLDAGVSEHS | 
